# Test results reported in article PMC5336075, “Single-Step Purification of Monomeric l-Selectin via Aptamer Affinity Chromatography”.
# T1: L-selectin LE-His (monomeric, lectin and EGF-like domains) (human, UniProt P14151 39-194)
# T1 sequence: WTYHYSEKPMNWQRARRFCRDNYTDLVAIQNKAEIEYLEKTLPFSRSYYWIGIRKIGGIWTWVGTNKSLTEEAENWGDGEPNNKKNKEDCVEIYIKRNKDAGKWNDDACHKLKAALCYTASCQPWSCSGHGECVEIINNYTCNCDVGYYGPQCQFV
# Target: T1, L-selectin LE-His (monomeric, lectin …)
# Experiment: SPR (single cycle kinetics); 1 mM CaCl2; protein in cell culture supernatant; abstract gives ~12 nM; SPR: HBS-Ca (20 mM HEPES pH 7.5, 150 mM NaCl, 1 mM CaCl2), Biacore X100, temperature not stated; column: PBS with 0.9 mM CaCl2 and 0.5 mM MgCl2, room temperature
# Conditions: protein: recombinant; tags: C-terminal His; label: 5' biotin
binder,measurement,value
GCCAGTACAAGGTGCTAAACGTAATGGC (structured_DNA) [LD201mΔ1],Kd,11.2 ± 0.8 nM
